# PMC2583361 (Critical reviews in biochemistry and molecular biology, 2008)
# Like-named read-outs stand apart in the source and are kept apart here.
# Experiments:
# Experiment in all cases: ITC
# [1] = target: T1, Escherichia coli single-stranded DNA binding protein (SSB) (E. coli, UniProt P0AGE0 1-178)
# [2] = target: T1, Escherichia coli single-stranded DNA …; remark: listed apart in the source
# [3] = target: T1, Escherichia coli single-stranded DNA …; remark: listed apart in the source
# [4] = target: T1, Escherichia coli single-stranded DNA …; remark: listed apart in the source
# T1 sequence (P0AGE0 whole entry): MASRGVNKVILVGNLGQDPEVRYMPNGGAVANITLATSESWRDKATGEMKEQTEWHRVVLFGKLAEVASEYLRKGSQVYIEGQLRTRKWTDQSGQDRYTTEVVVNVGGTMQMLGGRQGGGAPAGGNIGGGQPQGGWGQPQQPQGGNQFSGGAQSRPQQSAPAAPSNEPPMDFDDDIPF
binder,measurement,setting,value
"PriA DNA helicase (enzyme, E. coli, UniProt P17888 1-732, looked up) MPVAHVALPVPLPRTFDYLLPEGMTVKAGCRVRVPFGKQQERIGIVVSVSDASELPLNELKAVVEVLDSEPVFTHSVWRLLLWAADYYHHPIGDVLFHALPILLRQGRPAANAPMWYWFATEQGQAVDLNSLKRSPKQQQALAALRQGKIWRDQVATLEFNDAALQALRKKGLCDLASETPEFSDWRTNYAVSGERLRLNTEQATAVGAIHSAADTFSAWLLAGVTGSGKTEVYLSVLENVLAQGKQALVMVPEIGLTPQTIARFRERFNAPVEVLHSGLNDSERLSAWLKAKNGEAAIVIGTRSALFTPFKNLGVIVIDEEHDSSYKQQEGWRYHARDLAVYRAHSEQIPIILGSATPALETLCNVQQKKYRLLRLTRRAGNARPAIQHVLDLKGQKVQAGLAPALITRMRQHLQADNQVILFLNRRGFAPALLCHDCGWIAECPRCDHYYTLHQAQHHLRCHHCDSQRPVPRQCPSCGSTHLVPVGLGTEQLEQTLAPLFPGVPISRIDRDTTSRKGALEQQLAEVHRGGARILIGTQMLAKGHHFPDVTLVALLDVDGALFSADFRSAERFAQLYTQVAGRAGRAGKQGEVVLQTHHPEHPLLQTLLYKGYDAFAEQALAERRMMQLPPWTSHVIVRAEDHNNQHAPLFLQQLRNLILSSPLADEKLWVLGPVPALAPKRGGRWRWQILLQHPSRVRLQHIINGTLALINTIPDSRKVKWVLDVDPIEG",dH,[1],-28.7 kcal/mol
same,stoichiometry N,[1],5.2
same,dH,[2],-6.8 kcal/mol
same,stoichiometry N,[2],4.6
same,dH,[3],-28 kcal/mol
same,stoichiometry N,[3],1.7
same,dH,[4],-5.1 kcal/mol
same,stoichiometry N,[4],3.7
